Tests used:
[1] = target: T1, Human CTLA-4-Fc (Chimerigen, CHI-HF-210A4-M001) (human, UniProt P16410 37-162); assay: SPR (Biacore T200), human CTLA-4-Fc captured by anti-human IgG-Fc, mutein as analyte, 1:1 fit
T1 construct: Bought protein; also called hCTLA-4; not shown: Fc part of the bought fusion

[2] = target: T2, human CTLA-4 on transfected CHO-K1 cells (human, UniProt P16410 36-223); assay: FACS competition: inhibition of 20 nM biotinylated CD80/B7.1 binding to CTLA-4-transfected CHO-K1 cells
T2 construct: whole, on cells; also called CHO: CTLA-4; human CTLA-4 expressing CHO cells
T2 sequence (P16410 36-223): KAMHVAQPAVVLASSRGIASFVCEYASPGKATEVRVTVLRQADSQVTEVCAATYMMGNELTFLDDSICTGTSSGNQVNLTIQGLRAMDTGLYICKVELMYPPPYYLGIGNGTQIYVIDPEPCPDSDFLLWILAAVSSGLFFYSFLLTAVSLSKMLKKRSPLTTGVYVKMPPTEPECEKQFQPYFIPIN

[3] = target: T2, human CTLA-4 on transfected CHO-K1 cells; assay: FACS competition on human CTLA-4-transfected CHO cells; blocked ligand 20 nM biotinylated human B7.1, streptavidin-phycoerythrin
[4] = target: T2, human CTLA-4 on transfected CHO-K1 cells; assay: FACS competition: inhibition of 20 nM B7.1 Fc-bio binding to human CTLA-4-transfected CHO cells
[5] = target: T2, human CTLA-4 on transfected CHO-K1 cells; assay: FACS competition on human CTLA-4-transfected CHO cells; blocked ligand 20 nM biotinylated human B7.1 Fc, detected with streptavidin-PE

T1 sequence (P16410 37-162 limits assumed, change not shown): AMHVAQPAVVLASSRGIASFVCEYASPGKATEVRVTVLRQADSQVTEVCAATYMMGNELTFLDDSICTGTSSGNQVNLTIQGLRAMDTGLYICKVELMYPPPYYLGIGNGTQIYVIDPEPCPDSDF

| Kd [1] [nM] | koff [1] [s⁻¹] | kon [1] [M⁻¹ s⁻¹] | EC50 [2] [nM] | IC50 (read off the curve) [3] [nM] | IC50 [4] [nM] | IC50 (read off the curve) [5] [nM] | Binder |
| --- | --- | --- | --- | --- | --- | --- | --- |
| 1.8 | 0.0013 | 750000 | 7.4 |  |  |  | lipocalin mutein SEQ ID NO: 66 (designed binder) QDSTSDLIPAPPLSKVPLQQNFQDNQFQGKWYVVGLAGNRILRLDQHPMPMYATIYELKEDKSYQVTSVISSHKKCLYPIATFVPGSQPGEFTLGNIRSYGDKTSYLVRVVSTNYNQHAMVFFKHADTNYESFSITLYGRTKELTSELKENFIRFSKSLGLPENHIVFPVPIDQCIDGSAWSHPQFEK |
| 1.8 | 0.00061 | 340000 | 13.4 | 10 to 20 |  |  | lipocalin mutein SEQ ID NO: 94 (designed binder) QDSTSDLIPAPPLSKVPLQQNFQDNQFQGKWYVVGLAGNRILRQDQHPMPMYATIYELKEDKSYQVTSVISSHKKCLYPIATFVPGSQPGEFTLGNIKSYGDKVSYLVRVVSTNYNQHAMVFFKYADRNFESFSITLYGRTKELTSELKENFIRFSKSLGLPENHIVFPVPIDQCIDG |

The remaining lines, values behind:

| Binder | Kd [1] [nM] | koff [1] [s⁻¹] | kon [1] [M⁻¹ s⁻¹] | EC50 [2] [nM] | IC50 (read off the curve) [3] [nM] | IC50 [4] [nM] | IC50 (read off the curve) [5] [nM] |
| --- | --- | --- | --- | --- | --- | --- | --- |
| lipocalin mutein SEQ ID NO: 65 (designed binder) QDSTSDLIPAPPLSKVPLQQNFQDNQFQGKWYVVGLAGNRILRDDQHPMPMYATIYELKEDKSYQVTSVISSHKKCLYPIATFVPGSQPGEFTLGNIKSYGDKWSYLVRVVSTNYNQHAMVFFKHADSNYESFSITLYGRTKELTSELKENFIRFSKSLGLPENHIVFPVPIDQCIDGSAWSHPQFEK | 0.62 | 0.00044 | 710000 | 7.8 |  |  |  |
| lipocalin mutein SEQ ID NO: 62 (designed binder) QDSTSDLIPAPPLSKVPLQQNFQDNQFQGKWYVVGLAGNRILRDDQHPMPMYATIYELKGDKSYNVTSVISSHKKCLYPIATFVPGSQPGEFTLGNIKSYGDKWSYLVRVVSTDYNQYAVVFFKHADSNYESFSITIYGRTKELASELKENFIRFSKSLGLPENHIVFPVPIDQCIDG | 0.36 | 0.00027 | 750000 | 6 |  |  |  |
| lipocalin mutein SEQ ID NO: 61 (designed binder) QDSTSDLIPAPPLSKVPLQQNFQDNQFQGKWYVVGLAGNRILRLDQHPMPMYATIYELKGDKSYNVTSVISSHKKCLYPIATFVPGSQPGEFTLGNIRSYGDKTSYLVRVVSTDYNQYAVVFFKHADTNYESFSITIYGRTKELASELKENFIRFSKSLGLPENHIVFPVPIDQCIDG | 0.94 | 0.00072 | 770000 | 9.3 |  |  |  |
| CTLA-4 specific lipocalin mutein (SEQ ID NO: 4) (designed binder, hNGAL (lipocalin 2) mutein) QDSTSDLIPAPPLSKVPLQQNFQDNQFHGKWYVVGLAGNRILRDDQHPMPMYATIYELKGDKSYNVTSVISSHKKCLYPIATFVPGSQPGEFTLGNIKSYGDKWSYLVRVVSTDYNQYAVVFFKHADSNYESFSITIYGRTKELASELKENFIRFSKSLGLPENHIVFPVPIDQCIDG | 0.35 | 0.00022 | 640000 | 7.6 |  | 23 | ~20 |

Reference: US20160362460A1 (Pieris, published 2016)
